We go through 1 substance from PMC3902949.

This assay concerns the target Saccharomyces cerevisiae Rad51 protein (S. cerevisiae) (UniProt P25454). The experiment in a line: SEC; 10 µM Rad51 and 20 µM Rad52 fragment incubated at room temperature for 1 h, or each protein alone; Superdex 200 10/300 GL in 20 mM Hepes-KOH pH 7.5, 0.1 M KCl, 0.5 mM EDTA, 10% glycerol, 2 mM 2-mercaptoethanol; peak fractions analysed by SDS-PAGE. A general note: Size exclusion chromatography separates by hydrodynamic size, large species first.
Chain of UniProt P25454 (P25454 whole entry, the tested form may be a part): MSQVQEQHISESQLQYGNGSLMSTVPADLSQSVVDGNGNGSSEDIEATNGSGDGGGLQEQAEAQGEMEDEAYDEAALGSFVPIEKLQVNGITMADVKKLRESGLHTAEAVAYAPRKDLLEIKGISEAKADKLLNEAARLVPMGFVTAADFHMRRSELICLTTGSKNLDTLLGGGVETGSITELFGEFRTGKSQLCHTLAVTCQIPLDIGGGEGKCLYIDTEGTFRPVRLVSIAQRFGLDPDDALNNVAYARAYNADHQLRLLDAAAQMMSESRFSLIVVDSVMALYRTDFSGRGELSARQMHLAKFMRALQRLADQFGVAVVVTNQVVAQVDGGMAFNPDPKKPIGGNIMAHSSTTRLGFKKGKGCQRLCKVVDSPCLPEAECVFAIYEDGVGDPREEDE

As a reminder, the stoichiometry N is the number of molecules, sites or subunits per partner or assembly. The substance “Rad52^233–504 (C-terminal half of the Saccharomyces cerevisiae Rad52 protein) (domain or fragment)” had a stoichiometry N of 1.
